According to US20150118700:
Positions count from the first letter of the chain named. Names and notes keep the numbering of the source.

B1: ketoamine oxidase derived from Neocosmospora vasinfecta (NvFX) (protein)
chain: MTTPRKETTVLIIGGGGTIGSSTALHLLRAGYTPSNITVLDTYPIPSAQSAGNDLNKIMGIRLRNKVDLQLSLEARDMWRNDALFRPFFHNTGRLDCESSAEGVEGLRREYQKLVEAGVGLEETHEWLDSEEAILEKAPLLQREEIEGWKAIWSEEGGWLAAAKAINAIGEELQRQGVRFGFGGAGSFKRPLFADDGTTCIGVETVDGTQYHADKVVLAAGAWSPALVDLEEQCCSKAWVYAHMQLTPEEAAVYKGCPVVYHGDVGFFFEPNENGVIKVCDEFPGFTRFKQHQPYGAPAPKPVSVPRSHAKHPTDTYPDASEESIKRAVSTFLPRFKDKPLFNRALCWCTDTADSALLICEHPRWKNFILATGDSGHSFKLLPIIGKHVVELVEGRLADDLAEAWRWRPGQGDARKSIRAAPAKDLADMPGWKHDQDSESR
B2: NvFX-62D/106K/110L (protein)
chain: B1 chain with R62D, G106K, E110L
B3: CFP-T7-H1 (protein)
chain: MTSNRADTRVIVVGGGGTIGSSTALHLVRSGYAPANITVLDTFEIPSAQSAGHDLNKIMGIALRNKVDLQMSLEARQMWKEDELFQPFFHNTGRMDCEHTPEGIEDLKKQYQALHDAGAGLEKTHAWLDNEDEILSKMPLLQRDQIQGWKAIWSQDGGWLAAAKAINAIGQFLKERGVKFGFGGAGSFKQPLFDDEGTTCIGVETADGTKYYADKVVLAAGAWSPTLVDLEDQCCSKAWVYAHIQLTPEEAAEYKGVPVVYNGEFGFFFEPDEFGVIKVCDEFPGFSRFKEHQPYGAPSPKRISVPRSHAKHPTDTYPDASEVSIKKAIATFLPRFQDKELFNRALCWCTDTADAALLMCEHPKWKNFILATGDSGHSFKILPNVGKYVVELIEGRLPEEMAYQWRWRPGGDALKSRRAAPPKDLADMPGWKHDPKL
B4: CFP-T7-H25 (protein)
chain: B3 chain with A62D, L63D, D106K, Q110L, A113K
B5: CFP-T7-H24 (protein)
chain: B3 chain with A62D, L63A, D106K, Q110L, A113K
B6: CFP-T7-H4 (protein)
chain: B3 chain with Q110Y
B7: CFP-T7-H27 (protein)
chain: B3 chain with A62D, L63K, D106K, Q110L, A113K
B8: CFP-T7-H3 (protein)
chain: B3 chain with Q110F
B9: CFP-T7-H26 (protein)
chain: B3 chain with A62D, L63H, D106K, Q110L, A113K
B10: CFP-T7-H29 (protein)
chain: B3 chain with A62D, L63H, D106K, Q110L, A113K, A419K
B11: CFP-T7-H28 (protein)
chain: B3 chain with A62D, L63H, E102K, D106K, Q110L, A113K
B12: fructosyl amino acid oxidase derived from Aspergillus nidulans with serine 59 substituted with glycine (AnFX) (protein)
chain: MTPRANTKIIVVGGGGTMGSSTALHLLRAGYTPSNITVLDTCPIPSAQSAGYDLNKIMGIRLRNKPDLQLSLEALDMWKNDPLFKPFFHNVGMIDVSSTEEGIEGLRKKYQSLLDAGIGLEKTNFMLESEDEILAKAPHFTQEQIKGWKGLFCGDGGWLAAAKAINAIGQFLKEQGVKFGFGGAGTFKKPLFADAHEKTCIGVETVDGTKYYADKVVLAAGAWSSTLVDLEEQCVSKAWVFAHIQLTPAEAAAYKNTPVIYDGDYGFFFEPNENGIIKVCDEFPGFTHFKMHQPYGSPAPKPISVPRSHAKHPTDTYPHASEVTIKKAINRFLPRFNDKELFNRAMCWCTDTADANLLVCEHPRWKGFYLATGDSGHSFKLLPNIGKHVVELLEERLESVFKDAWRWRPGSGDALKSRRAAPAKDLADMPGWRNEAKM
B13: AnFX-61D/105K/109L (protein)
chain: B12 chain with R61D, G105K, K109L
B14: AnFX-61D/62H/101K/105K/109L/112K/355S (protein)
chain: B12 chain with R61D, L62H, E101K, G105K, K109L, S112K, A355S
B15: fructosyl peptide oxidase derived from Eupenicillium terrenum (EFP-T5) (protein)
chain: MAHSRASTKVVVVGGGGTIGSSTALHLIRSGYTPSNITVLDVYKTPSLQSAGHDLNKIMGIRLRNGPDLQLSLESLDMWQNDELFKPFFHQVGMIDCSSSKEGIENLRRKYQTLLDAGIGLEKTNVWLESEDEILAKAPNFTREQVKGWKGLFCTDGGWLAAAKAINAIGIFLQDKGVKFGFGDAGTFQQPLFAADGKTCIGLETTDGTKYFADKVVLAAGAWSPTLVDLEDQCVSKAWVFAHIQLTPKEADAYKNVPVVYDGEYGFFFEPDEYGVIKVCDEFPGFSRFKLHQPYGAASPKMISVPRSHAKHPTDTYPDASEVTIRKAIARFLPEFKDKELFNRTMCWCTDTADANLLICEHPKWKNFILATGDSGHSFKLLPNIGKYVVELLEGSLSQEMAGAWRWRPGGDALRSRRGAPAKDLAEMPGWKHDAHL
B16: EFP-T5-62D/63H/106K/110L/113K/355S (protein)
chain: B15 chain with R62D, L63H, N106K, K110L, T113K, A355S
B17: EFP-T5-R62D (protein)
chain: B15 chain with R62D

Molecular target: T1, α-fructosyl hexapeptide (α-fructosyl-valyl-histidyl-leucyl-threonyl-propyl-glutamic acid)
T1 chain: VHLTPE

| Protein | Specific activity (U/mg), 1 mM αF6P | αF6P oxidation activity, relative to αFVH oxidation activity designated to be 100 (relative (αFVH = 100)) | αF6P oxidation activity ratio, relative to CFP-T7-H20 designated to be 100 (relative (CFP-T7-H20 = 100)) | αF6P oxidation activity ratio (reference, designated to be 100) (relative (CFP-T7-H26 = 100)) | αF6P oxidation activity ratio, relative to CFP-T7-H26 designated to be 100 (relative (CFP-T7-H26 = 100)) | αF6P oxidation activity ratio (reference row of the table, 100) (relative (CFP-T7-H28 = 100)) |
| --- | --- | --- | --- | --- | --- | --- |
| B1 | 0 U/mg | – | – | – | – | – |
| B2 | 0.003 U/mg | – | – | – | – | – |
| B3 | – | 0.0316 | – | – | – | – |
| B4 | – | – | 24 | – | – | – |
| B5 | – | 86.7 | 123 | – | – | – |
| B6 | – | 0.0341 | – | – | – | – |
| B7 | – | – | 7 | – | – | – |
| B8 | – | 0.0298 | – | – | – | – |
| B9 | – | 84.3 | 142 | 100 | – | – |
| B10 | – | 111 | – | – | 102 | – |
| B11 | – | 134 | – | – | 117 | 100 |
| B12 | 0 U/mg | – | – | – | – | – |
| B13 | 0.106 U/mg | – | – | – | – | – |
| B14 | 0.283 U/mg | – | – | – | – | – |
| B15 | 0 U/mg | – | – | – | – | – |
| B16 | 1.12 U/mg | – | – | – | – | – |
| B17 | 0.0043 U/mg | – | – | – | – | – |
